The values below come from PMC12279954 (Nature Communications, 2025).

B1: human haptoglobin Hp2 (residue 1-406) (natural protein)
chain: VDSGNDVTDIADDGCPKPPEIAHGYVEHSVRYQCKNYYKLRTEGDGVYTLNDKKQWINKAVGDKLPECEADDGCPKPPEIAHGYVEHSVRYQCKNYYKLRTEGDGVYTLNNEKQWINKAVGDKLPECEAVCGKPKNPANPVQRILGGHLDAKGSFPWQAKMVSHHNLTTGATLINEQWLLTTAKNLFLNHSENATAKDIAPTLTLYVGKKQLVEIEKVVLHPNYSQVDIGLIKLKQKVSVNERVMPICLPSKDYAEVGRVGYVSGWGRNANFKFTDHLKYVMLPVADQDQCIRHYEGSTVPEKKTPKSPVGVQPILNEHTFCAGMSKYQEDTCYGDAGSAFAVHDLEEDTWYATGILSFDKSCAVAEYGVYVKVTSIQDWVQKTIAEN
B2: CD163 ectodomain (human CD163, residue 1-1050) (receptor)
chain: not shown

Series [1] deals with the molecule itself. In words: SEC. (In gel filtration, larger molecules generally elute earlier.)
Series [2] concerns the molecule itself. The experiment in a line: AUC.
Series [3] concerns the molecule itself. The experiment in a line: SEC. The source holds these as a separate data set.
Series [4] concerns the molecule itself. In words: AUC. The source holds these as a separate data set.
Series [5] concerns the target B2. The experiment in a line: AUC.
For series [6], the target named is CD163 ectodomain E359A (human, UniProt Q86VB7 42-1050, E359A). In words: pull-down.
Sequence of CD163 ectodomain E359A (Q86VB7 42-1050 E359A): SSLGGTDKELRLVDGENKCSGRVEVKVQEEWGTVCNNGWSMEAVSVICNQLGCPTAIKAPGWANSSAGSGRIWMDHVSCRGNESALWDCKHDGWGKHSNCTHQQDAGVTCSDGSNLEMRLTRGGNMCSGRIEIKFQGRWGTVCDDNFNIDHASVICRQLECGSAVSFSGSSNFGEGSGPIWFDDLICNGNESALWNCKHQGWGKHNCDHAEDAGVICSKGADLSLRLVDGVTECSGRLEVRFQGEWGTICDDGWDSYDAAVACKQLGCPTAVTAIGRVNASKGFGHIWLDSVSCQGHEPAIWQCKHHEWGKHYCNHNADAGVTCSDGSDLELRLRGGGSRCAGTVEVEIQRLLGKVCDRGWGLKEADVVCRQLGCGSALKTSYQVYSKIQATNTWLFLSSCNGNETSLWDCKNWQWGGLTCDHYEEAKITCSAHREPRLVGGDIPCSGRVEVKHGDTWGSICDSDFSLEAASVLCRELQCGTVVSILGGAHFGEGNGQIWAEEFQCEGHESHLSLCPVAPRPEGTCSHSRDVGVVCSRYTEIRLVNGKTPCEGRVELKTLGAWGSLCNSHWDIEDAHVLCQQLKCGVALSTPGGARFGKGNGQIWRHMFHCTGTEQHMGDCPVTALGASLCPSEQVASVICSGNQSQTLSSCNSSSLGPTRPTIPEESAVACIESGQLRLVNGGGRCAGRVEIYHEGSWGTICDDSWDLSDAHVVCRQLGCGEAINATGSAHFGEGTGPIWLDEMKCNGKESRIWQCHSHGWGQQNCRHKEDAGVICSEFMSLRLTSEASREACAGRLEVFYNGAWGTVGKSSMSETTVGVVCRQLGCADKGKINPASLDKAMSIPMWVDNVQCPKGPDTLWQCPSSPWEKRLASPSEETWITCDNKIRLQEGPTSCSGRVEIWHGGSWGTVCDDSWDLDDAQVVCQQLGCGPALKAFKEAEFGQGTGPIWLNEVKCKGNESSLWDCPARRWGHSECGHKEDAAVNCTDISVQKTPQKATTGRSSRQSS
The target in series [7] is CD163 ectodomain D292A/D293A (human, UniProt Q86VB7 42-1050, D292A | D293A). In words: pull-down.
Sequence of CD163 ectodomain D292A/D293A (Q86VB7 42-1050 D292A/D293A): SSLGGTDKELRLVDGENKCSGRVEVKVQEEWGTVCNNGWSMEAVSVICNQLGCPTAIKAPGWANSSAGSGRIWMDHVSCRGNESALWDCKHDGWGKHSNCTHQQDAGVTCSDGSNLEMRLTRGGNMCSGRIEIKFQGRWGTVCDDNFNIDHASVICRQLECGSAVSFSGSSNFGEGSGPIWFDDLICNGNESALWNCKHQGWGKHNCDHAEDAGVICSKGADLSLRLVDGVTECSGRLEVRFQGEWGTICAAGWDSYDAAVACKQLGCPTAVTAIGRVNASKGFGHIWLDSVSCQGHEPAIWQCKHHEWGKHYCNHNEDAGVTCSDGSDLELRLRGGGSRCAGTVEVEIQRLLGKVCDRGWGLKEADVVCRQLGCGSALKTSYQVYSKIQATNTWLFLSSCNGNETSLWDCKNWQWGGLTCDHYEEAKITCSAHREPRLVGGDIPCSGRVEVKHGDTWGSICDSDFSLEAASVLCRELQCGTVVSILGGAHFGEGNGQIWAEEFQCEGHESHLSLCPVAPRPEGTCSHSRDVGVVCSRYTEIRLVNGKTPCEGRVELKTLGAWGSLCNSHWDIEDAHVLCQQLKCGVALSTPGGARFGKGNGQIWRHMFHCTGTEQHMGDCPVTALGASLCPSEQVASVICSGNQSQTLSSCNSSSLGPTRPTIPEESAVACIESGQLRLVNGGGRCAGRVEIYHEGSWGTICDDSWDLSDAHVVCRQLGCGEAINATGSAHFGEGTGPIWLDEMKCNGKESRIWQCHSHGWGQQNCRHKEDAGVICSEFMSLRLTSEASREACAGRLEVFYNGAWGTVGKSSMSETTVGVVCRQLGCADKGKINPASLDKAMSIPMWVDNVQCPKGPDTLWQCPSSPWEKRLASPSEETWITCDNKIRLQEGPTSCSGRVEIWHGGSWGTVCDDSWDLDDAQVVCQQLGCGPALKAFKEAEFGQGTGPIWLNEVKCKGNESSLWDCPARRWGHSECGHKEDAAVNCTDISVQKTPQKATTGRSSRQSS
In series [8] the target is B2. The experiment in a line: SEC.
Series [9] addresses B1. The experiment in a line: SEC.
Series [10] concerns the target T1, human haptoglobin Hp1 (residue 1-347) (human, UniProt P00738-2 19-347).
T1 sequence: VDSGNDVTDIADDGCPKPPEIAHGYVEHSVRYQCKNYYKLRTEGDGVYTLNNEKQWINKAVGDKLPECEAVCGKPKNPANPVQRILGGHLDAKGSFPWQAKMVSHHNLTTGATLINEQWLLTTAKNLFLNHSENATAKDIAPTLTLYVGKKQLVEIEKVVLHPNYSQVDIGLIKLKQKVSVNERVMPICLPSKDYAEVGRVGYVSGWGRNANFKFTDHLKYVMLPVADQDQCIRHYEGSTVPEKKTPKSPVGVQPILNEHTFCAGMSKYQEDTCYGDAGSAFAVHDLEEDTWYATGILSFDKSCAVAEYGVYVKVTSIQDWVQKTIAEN
In words: SEC.

In the case of B1, in [1], the binding result was “binds”.

For B2, the “stoichiometry N” value in series [2] is 2; in series [3], roughly 3; in series [4], 3.

B3: hemoglobin-haptoglobin 1 complex (Hb-Hp1) (complex)
chain 1: not shown
chain 2: not shown
chain 3: VDSGNDVTDIADDGCPKPPEIAHGYVEHSVRYQCKNYYKLRTEGDGVYTLNNEKQWINKAVGDKLPECEAVCGKPKNPANPVQRILGGHLDAKGSFPWQAKMVSHHNLTTGATLINEQWLLTTAKNLFLNHSENATAKDIAPTLTLYVGKKQLVEIEKVVLHPNYSQVDIGLIKLKQKVSVNERVMPICLPSKDYAEVGRVGYVSGWGRNANFKFTDHLKYVMLPVADQDQCIRHYEGSTVPEKKTPKSPVGVQPILNEHTFCAGMSKYQEDTCYGDAGSAFAVHDLEEDTWYATGILSFDKSCAVAEYGVYVKVTSIQDWVQKTIAEN
For B3, the binding result in [5], in series [6] and in [7] was “binds” in each case.

B4: hemoglobin-haptoglobin 2 complex (Hb-Hp2) (complex)
chain 1: not shown
chain 2: not shown
chain 3: VDSGNDVTDIADDGCPKPPEIAHGYVEHSVRYQCKNYYKLRTEGDGVYTLNDKKQWINKAVGDKLPECEADDGCPKPPEIAHGYVEHSVRYQCKNYYKLRTEGDGVYTLNNEKQWINKAVGDKLPECEAVCGKPKNPANPVQRILGGHLDAKGSFPWQAKMVSHHNLTTGATLINEQWLLTTAKNLFLNHSENATAKDIAPTLTLYVGKKQLVEIEKVVLHPNYSQVDIGLIKLKQKVSVNERVMPICLPSKDYAEVGRVGYVSGWGRNANFKFTDHLKYVMLPVADQDQCIRHYEGSTVPEKKTPKSPVGVQPILNEHTFCAGMSKYQEDTCYGDAGSAFAVHDLEEDTWYATGILSFDKSCAVAEYGVYVKVTSIQDWVQKTIAEN
Take B4: the binding result in series [8] is recorded as “binds”.

B5: human hemoglobin (complex)
chain 1: not shown
chain 2: not shown
As for B5, the binding result in series [9] and in series [10] was “binds” in each case.

Usually stoichiometry N stands for a count of units in the complex or per binding partner.
